Experimental findings from paper PMC9700808, “Poly ADP-ribosylation of SET8 leads to aberrant H4K20 methylation in mammalian nuclear genome” (Communications Biology, 2021) are described below.

Series [1] has as its target T1, full-length recombinant PARP1 protein (UniProt P09874 1-1014).
T1 construct: PARP1, full-length recombinant protein bought from Active Motif; also called purified PARP1; PARP1 recombinant enzyme; source: bought: Active Motif (# 81037)
Put plainly: pull-down; GST-SET8 fusions on glutathione-Sepharose beads, full-length recombinant PARP1 in solution; 1X PBS with 0.1% Triton X-100, 100 µg/ml BSA, 4 °C, 1 h; washes with 1% Triton X-100; western blot with anti-PARP1. As to conditions: both partners purified.

For series [2], the target named is T2, His-SET8 (UniProt Q9NQR1-2 1-352).
T2 sequence: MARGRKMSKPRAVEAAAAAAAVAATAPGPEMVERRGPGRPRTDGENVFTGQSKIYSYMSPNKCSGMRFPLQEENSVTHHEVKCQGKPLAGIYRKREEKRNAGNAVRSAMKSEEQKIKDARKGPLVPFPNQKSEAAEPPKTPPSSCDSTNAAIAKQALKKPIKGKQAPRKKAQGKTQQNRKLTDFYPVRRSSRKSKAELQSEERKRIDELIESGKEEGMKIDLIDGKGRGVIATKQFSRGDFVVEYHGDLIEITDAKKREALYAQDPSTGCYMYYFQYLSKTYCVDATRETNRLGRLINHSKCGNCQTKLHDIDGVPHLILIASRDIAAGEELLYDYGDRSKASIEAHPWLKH
Put plainly: EMSA; 2 mM MgCl2; GRB buffer: 20 mM HEPES pH 7.5, 10% glycerol, 25 mM KCl, 0.1 mM EDTA, 1 mM DTT, 2 mM MgCl2, 0.2% NP40; on ice 10-15 min; 6% TBE gel, 0.5x TBE, 4 C. As to conditions: protein: recombinant; tags: His; label: Cy3 (end); hairpin, 10 bp stem with AAA loop. A general note: A gel shift assay detects complexes by their altered migration in electrophoresis.

One may read the Kd as a measure of binding affinity in units of concentration.

T1 sequence (P09874 whole entry): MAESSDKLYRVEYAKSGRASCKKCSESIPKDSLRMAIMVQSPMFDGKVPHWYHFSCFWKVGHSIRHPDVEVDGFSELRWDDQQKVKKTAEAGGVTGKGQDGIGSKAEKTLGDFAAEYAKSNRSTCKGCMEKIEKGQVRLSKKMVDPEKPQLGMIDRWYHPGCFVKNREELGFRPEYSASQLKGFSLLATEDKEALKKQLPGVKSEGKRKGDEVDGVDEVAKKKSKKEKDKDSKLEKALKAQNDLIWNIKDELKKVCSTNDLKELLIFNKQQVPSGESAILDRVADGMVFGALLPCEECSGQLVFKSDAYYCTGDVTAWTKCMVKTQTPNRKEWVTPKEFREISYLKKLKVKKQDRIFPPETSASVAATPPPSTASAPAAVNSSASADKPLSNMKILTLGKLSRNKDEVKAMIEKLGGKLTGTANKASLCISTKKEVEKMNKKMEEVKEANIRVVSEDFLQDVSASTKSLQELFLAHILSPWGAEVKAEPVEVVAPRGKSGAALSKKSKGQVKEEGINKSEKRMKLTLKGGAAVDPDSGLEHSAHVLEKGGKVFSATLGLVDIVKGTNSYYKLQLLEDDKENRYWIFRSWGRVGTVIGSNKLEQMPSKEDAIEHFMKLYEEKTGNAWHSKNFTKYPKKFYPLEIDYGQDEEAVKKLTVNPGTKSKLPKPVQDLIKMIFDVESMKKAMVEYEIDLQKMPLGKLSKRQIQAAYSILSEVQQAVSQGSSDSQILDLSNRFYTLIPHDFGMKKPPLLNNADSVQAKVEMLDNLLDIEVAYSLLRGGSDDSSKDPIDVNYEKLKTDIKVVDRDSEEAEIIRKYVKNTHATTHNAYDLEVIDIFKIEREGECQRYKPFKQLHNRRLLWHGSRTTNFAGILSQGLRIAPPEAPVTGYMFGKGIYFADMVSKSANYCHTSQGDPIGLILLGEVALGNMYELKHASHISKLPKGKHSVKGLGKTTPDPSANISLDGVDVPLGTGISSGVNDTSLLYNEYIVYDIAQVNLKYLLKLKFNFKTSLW

B1: GST-SET8 disorder domain 80-230 (domain or fragment, UniProt Q9NQR1-2 80-230, looked up)
chain: EVKCQGKPLAGIYRKREEKRNAGNAVRSAMKSEEQKIKDARKGPLVPFPNQKSEAAEPPKTPPSSCDSTNAAIAKQALKKPIKGKQAPRKKAQGKTQQNRKLTDFYPVRRSSRKSKAELQSEERKRIDELIESGKEEGMKIDLIDGKGRGV
notes: SET8 (KMT5A) disorder domain, residues 80-230; printed numbering runs to 352; vector pGEX5X.1; primers in Supplementary File 1; also called GST-SET8 DD; disorder domain (DD); source: E. coli ER2566, purified, on glutathione-Sepharose beads
Take B1: the binding result in series [1] is “binds”.

B2: full-length GST fusion SET8 (GST-SET8 FL) (enzyme, UniProt Q9NQR1-2 1-352, looked up)
chain: MARGRKMSKPRAVEAAAAAAAVAATAPGPEMVERRGPGRPRTDGENVFTGQSKIYSYMSPNKCSGMRFPLQEENSVTHHEVKCQGKPLAGIYRKREEKRNAGNAVRSAMKSEEQKIKDARKGPLVPFPNQKSEAAEPPKTPPSSCDSTNAAIAKQALKKPIKGKQAPRKKAQGKTQQNRKLTDFYPVRRSSRKSKAELQSEERKRIDELIESGKEEGMKIDLIDGKGRGVIATKQFSRGDFVVEYHGDLIEITDAKKREALYAQDPSTGCYMYYFQYLSKTYCVDATRETNRLGRLINHSKCGNCQTKLHDIDGVPHLILIASRDIAAGEELLYDYGDRSKASIEAHPWLKH
notes: SET8 (KMT5A), full length; printed numbering runs to 352 (fragments 157-352, 175-352); vector pGEX5X.1; source: E. coli ER2566, purified, on glutathione-Sepharose beads
Regarding B2, the binding result in series [1] is reported as “binds”.

B3: GST-SET8 N-terminal 1-98 (domain or fragment, UniProt Q9NQR1-2 1-98, looked up)
chain: MARGRKMSKPRAVEAAAAAAAVAATAPGPEMVERRGPGRPRTDGENVFTGQSKIYSYMSPNKCSGMRFPLQEENSVTHHEVKCQGKPLAGIYRKREEK
notes: SET8 (KMT5A) residues 1-98; vector pGEX5X.1; primers in Supplementary File 1; also called N-terminal 1–98 amino acids; source: E. coli ER2566, purified, on glutathione-Sepharose beads
For the molecule B3, in series [1], the binding result was “binds”.

B4: EcoRI hairpin oligonucleotide (structured_DNA)
DNA: GGGAATTCCCAAAGGGAATTCCC
With B4, the Kd in series [2] is 1600 ± 600 nM.
